Test [1] has as its target Hsp90 (of the ITC in Supplementary Figure 1). The test is described as follows: ITC. Background: Isothermal titration calorimetry measures the heat released or taken up as one component is titrated into another.
For test [2], the target named is human Skp1 (human) (UniProt P63208). As to the kind of experiment: ITC.
The target of test [3] is His6-tagged human Hsp90β (human, UniProt P08238 1-724). As to the kind of experiment: pull-down.
Chain of His6-tagged human Hsp90β (P08238 whole entry): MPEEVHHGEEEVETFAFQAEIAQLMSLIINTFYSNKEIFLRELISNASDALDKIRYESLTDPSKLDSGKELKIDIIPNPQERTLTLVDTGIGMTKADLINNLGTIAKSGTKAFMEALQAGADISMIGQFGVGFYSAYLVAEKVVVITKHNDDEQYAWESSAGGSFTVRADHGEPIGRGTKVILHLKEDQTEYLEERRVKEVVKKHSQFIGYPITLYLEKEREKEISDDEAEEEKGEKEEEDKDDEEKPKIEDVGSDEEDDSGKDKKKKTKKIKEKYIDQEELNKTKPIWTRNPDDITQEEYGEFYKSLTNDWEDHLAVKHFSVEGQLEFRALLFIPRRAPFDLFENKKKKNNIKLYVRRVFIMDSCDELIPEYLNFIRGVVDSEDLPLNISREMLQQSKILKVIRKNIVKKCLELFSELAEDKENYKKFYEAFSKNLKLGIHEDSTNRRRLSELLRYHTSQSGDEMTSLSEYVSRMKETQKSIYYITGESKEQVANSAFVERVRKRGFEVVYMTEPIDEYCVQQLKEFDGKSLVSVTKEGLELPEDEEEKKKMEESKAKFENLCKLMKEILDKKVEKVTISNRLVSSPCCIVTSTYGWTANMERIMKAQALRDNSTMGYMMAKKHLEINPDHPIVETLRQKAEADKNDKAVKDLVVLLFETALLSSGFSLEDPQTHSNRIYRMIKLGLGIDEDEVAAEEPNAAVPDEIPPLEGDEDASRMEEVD

As usually defined, the stoichiometry N is the number of molecules, sites or subunits per partner or assembly. Regarding “Sgt1 (of the ITC in Supplementary Figure 1) (natural protein)”, the stoichiometry N in test [1] stood at 1.

B1: human Sgt1, wild type (natural protein, UniProt Q9Y2Z0-2 1-333, looked up)
chain: MAAAAAGTATSQRFFQSFSDALIDEDPQAALEELTKALEQKPDDAQYYCQRAYCHILLGNYCVAVADAKKSLELNPNNSTAMLRKGICEYHEKNYAAALETFTEGQKLDSADANFSVWIKRCQEAQNGSESEVWTHQSKIKYDWYQTESQVVITLMIKNVQKNDVNVEFSEKELSALVKLPSGEDYNLKLELLHPIIPEQSTFKVLSTKIEIKLKKPEAVRWEKLEGQGDVPTPKQFVADVKNLYPSSSPYTRNWDKLVGEIKEEEKNEKLEGDAALNRLFQQIYSDGSDEVKRAMNKSFMESGGTVLSTNWSDVGKRKVEINPPDDMEWKKY
What is called Kd is the equilibrium constant for the complex coming apart. High values mean weaker binding, low ones tighter binding. Regarding B1, in test [2], the dissociation constant Kd stood at 1640 nM. In test [3], the binding result is listed as “binds”.
